Assay: yeast display, Sf9 membrane polyspecificity reagent, FACS + sequencing; frameworks hold sequencing errors
Outline: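 Using colony PCR, genes from sorted yeast display clones were amplified, then sequenced on MiSeq at 2 × 250 and filtered by CDR length. The clones had been stained with 10% biotinylated, detergent-solubilized Sf9 membrane reagent for 1 hour at 4 °C and sorted by FACS into low and high (top ~1%) gates on anti-HA and streptavidin fluorescence. Polyreactivity labels come from the gate of origin.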

Sequence | polyreactivity (PSR sort gate)
QVQLGESGGRKVQPGGSLRLSCAASGYTIAWYVMGWSRQAPGKESELVAAISWSGGRTYYADSVKGRFTISRDNAKNTVYLQMNSLNPQDTAVYYCNAYWNPASKYDYWGQGTQVTVSS | high polyreactivity
QVQLVESGGGLVQAGGSLRLSCAASGSIFRAYAMGWYRQAHGKERELVAAITGNGARTYYADSVKGRFTISRDNAKNTVYLQMNSLKPEDTAVYYCAKRGNRQHRWWYDYWGQGTQVTVSS | low polyreactivity
QVQLEDSGGGLVQAGGSLRLSSAASGSTFAVYAMGWYRQAPGKERELVAAISFSGSTYADSVKGRFTISRDNAKNTVYLQMNSLKPEDTAVYYCAKEYRVFGWWYTKGDYWGQGTQVTVSS | low polyreactivity
QVQLVESGGGLVQAGGSLRLSCAASGSILGANVMGWYRQAPGKERELVASISKSGGNTFYADSVKGRFTISRDNAKNTVYLQMNSLKPEDTAVYYCAKDVLGGQITDGVGNDYWGQGTQVTVSS | low polyreactivity
QVQLVESGGGLVQAGGSLRLSCAASGSTFRYYAMGWYRQAPGKERELVARITSRAGRTYYADSVKGRFTLSRDNAKNTVYLQMNSLKPEDTAVYYCNTRDFSGYVHALSLYDYWGQGTQVTVSS | high polyreactivity
QVQLVESGGGLVQAGGSLRLSCAASGITFADNSMGWYRQAPGKERELVAAISRGGSTYYADSVKGRFTISRDNAKNTVYLQMNSLKPEDTAVYYCAAAGWWRAWGSYLRFYGYDYWGQGTQVTVSS | low polyreactivity
QVQLVESGGGLVQAGGSLRLSCAASGSTFPRNDMGWYRQAPGKERELVAAISRGGSTNNADSVKGRFTISRDNAKNTVYLQMNSLKPEDTAVYYCAAQIFESAYGMDYWGQGTQVTVSS | low polyreactivity
RVQLQESGGGLVQAGGSLRLSCAASGTIFIRGDMGWYRQAPGKEREFVATIDTGSNTYNADSEKGRFTISRDNAKNAVYLQMNCLKPGDTAVYYCVVDYQLSGRLRYWGQGTQVTLSS | low polyreactivity
QVQLVESGGGLVQAGGSLRLSCAASGSTFRLYAMGCYRPAPGKERELVAVISRSGGRTYADSVKGRFTISRDNAKNTVYLQMNSLKPEDTAVYYCAKARHKSPTYTHDSWGQGTQVTVSS | high polyreactivity
QVQLVESGGRLVQAGGSLRRSCAASGSTFASNAMRWYRPAPGKERELVAAITSRDASTYYADSVKGRFTISRDNAKNTVYLQMNSLKPEDTAVYYCATDGYSPAAFDYWGQGTQVTVSS | low polyreactivity
QVQLVESGGGLVQAGGSLRLSCAASGFIFGDYAMGWYRQAPGKERELVAAIRGSDSTTYYADSVKGRFTISRDNAKNTVYLQMNSLKPEDTAVYYCAAVGVVPRKKSARVYYWGQGTQVTVSS | low polyreactivity
QVQLVESGGGLVQAGGSLRLSCDASGRTFLYYAMGWSRQAPGKERELVAAISSGGSTNYADSVKGRFTISRDNAKNTVYLQMNSLKPEDTAVYYCNADYTSRDTSDVIYEYDYWGQGTQVTVTS | low polyreactivity
QVQLVESGGGLVQAGGSLRLSCAASGITIIHNAMGWYRQAPGKERELVAAITTSDGSTYYADSVKGRFTISRDNAKNTVYLQMNSLKPEDTAVYYCAARGRHSGYYSFPYYYWGQGTQVTVSS | low polyreactivity
QVQLVESGGGLVQAGGTLRLSCAASGSTFTGNAMGWYRQAPGKERELVASISTGGSTNYADSVKGRFTISRDNAKNTVYLQMNSLKPEDTAVYYCAKRIRYNWTFDDWGQGTQVTVSS | low polyreactivity
QVQLVESGGGLVQAGGSLRLSCAASGSTFSSYAMGWYRQAPGKERELVAAISYSGGSTYYADSVKGRFTISRDNAKNTVYLQMNSLKPEDTAVYYCAAVGTWQHRSYGYWGQGTQVTVSS | high polyreactivity
QVQLVESAGGLVQAGGSLSLSCAASGSMFIYNAMGWYRQAPGKERELVATISSGGSTTYADSVKGRFTISRDNAKNTVYLQMNSLKPEDTAVYYCATDDPPDQYFYLGYYYWGANDYWGQGTQVTVSS | low polyreactivity
QVQLVESGGGLVQAGGSLRLSCAASGRILVSYAMGGYRQAPGKERELVAAISRSGGSTYYADSVKGRFTISLDTAKNTVYLQMNSLKPEDTAVYYCNVYRFSRYDYWGQGTLVTVSS | high polyreactivity
QVQLVESGVGLVQAGGSLRLSCAASGSTLFVYAMGRYRQAPGKERELVAAISRGGSTYYADSVKGRFTISRDNAKNTVYLQMNSLKPEDTAVYYCAAVGGYPRYGYWGQGTQVTVSS | high polyreactivity
QVQLVESGGGLDQAGGSLRLSCAASGSIFKYYVIGCYRQAPAKERELLAAISSGGSTYYADSVKGRFTISRDNAKNTVSLQLNSLKPEDTAVYFCAAKKAKSYYVSRYPRYYYWGQGTQVTVSS | low polyreactivity
QVQLVESGGGLVQAGGSLRLSCAASGFTFFTYAMGWYRQAPGNERELVAAISSSGDRTYYADSVKGRFTISRDNAKNTVYLQMNSLKPEDTAVYYCAVYKYYHFYYWGQGTQVTVSS | high polyreactivity
QVQLVESGGGLVQAGGSLRLSCAASGRTFGRNDMGWYRQAPGKERELLATITSGGSTNYADSVKGRFTISRDNAKNTVYLQMISLKPEDTAVYYCAAEFSPSRWAYSEGALRYNYWGQGTQVTVSS | low polyreactivity

From the nanobody polyreactivity screen of Harvey et al. (2022)
